The values below come from patent US20260034194A1, “PHARMACEUTICAL COMPOSITIONS AND METHODS OF TREATING PSP” (priority 2022, published 2026).

B1: D785N: RcSxph STX binding pocket mutant D785N (protein)
chain: MAPTFQTALFFTIISLSFAAPNAKQVRWCAISDLEQKKCNDLVGSCNVPDITLVCVLRSSTEDCMTAIKDGQADAMFLDSGEVYEASKDPYNLKPIIAEPYSSNRDLQKCLKERQQALAKKMIGHYIPQCDEKGNYQPQQCHGSTGHCWCVNAMGEKISGTNTPPGQTRATCERHELPKCLKERQVALGGDEKVLGRFVPQCDEKGNYEPQQFHGSTGYSWCVNAIGEEIAGTKTPPGKIPATCQKHDLVTTCHYAVAMVKKSSAFQFNQLKGKRSCHSGVSKTDGWKALVTVLVEKKLLSWDGPAKESIQRAMSKFFSVSCIPGATQTNLCKQCKGEEGKNCKNSHDEPYYGNYGAFRCLKEDMGDVAFLRSTALSDEHSEVYELLCPDNTRKPLNKYKECNLGTVPAGTVVTRKISDKTEDINNFLMEAQKRQCKLFSSAHGKDLMFDDSTLQLALLSSEVDAFLYLGVKLFHAMKALTGDAHLPSKNKVRWCTINKLEKMKCDDWSAVSGGAIACTEASCPKGCVKQILKGEADAVKLEVQYMYEALMCGLLPAVEEYHNKDDFGPCKTPGSPYTDFGTLRAVALVKKSNKDINWNNIKGKKSCHTGVGDIAGWVIPVSLIRRQNDNSDIDSFFGESCAPGSDTKSNLCKLCIGDPKNSAANTKCSLSDKEAYYGNQGAFRCLVEKGDVAFVPHTVVFENTDGKNPAVWAKNLKSEDFELLCLDGSRAPVSNYKSCKLSGIPPPAIVTREESISDVVRIVANQQSLYGRKGFEKDMFQLFSSNKGNNLLFNDNTQCLITFNRQPKDIMEDYFGKPYYTTVYGASRSAMSSELISACTIKHC
B2: D794A: RcSxph STX binding pocket mutant D794A (protein)
chain: B1 chain with N804D, D813A
B3: NpSxph: Nanorana parkeri (High Himalaya frog) saxiphilin, SEQ ID NO: 2 (protein, listed as Nanorana parkeri)
chain: MALTFHTALYFTIVGLSFAASDARHVQWCTISHLEQKKCNDLVGSCNVPDITLACVYRSSTENCMAAIKDGQADAMFLDSGDVYKASLDHYNLKPIIAEPYSLHRELTKCLKHRQESLGGDKMVKGRYIPQCDEKGNYHPVQCHASTGYCWCVNANGEKIEGTNTTPVQTPPTCPSQVLTKCLKERQEALGGKRIAIGRYIPQCDEQGNYRPMQCHGSTGYCWCVNAIGEKIEGTNTPPGNTQPTCQSHDWDTCHYAVAVVKNSSTFQFGQLKGKRSCHSGLSKTDGWNAPVNVFVEKKLLPWDGLAKGSIERAVSKFFSASCIPGATETNLCKQCIGEEEKKCKSSHDEPYYGDHGAFRCLQEDKGDVAFLKNTALPDEHSGVYELLCPDNTRKPLNKYKECNLGKVPADAVVTRKAGDKTKDINDFLLEAQKKKCKLFGSPHGKDLMFDDSTTHLAPLPSEIDAFFFLGVKWYNAMKALTEDVKLPSKNKVRWCTINKPEMMKCKDWAAVSGGAIACTEASCPEHCVKQILKGEADAVTLDVQYMYMALMCGLLPAVEEYPNKDDFHPCQIPGSTIKDFGTKRAVALVKKSNKDIKWNNLKGKKSCHTHVGDIPGWVIPAGLISNQNDNIDIESFFGESCAPGSDTNSKLCKLCIGDPENPKASTRCSLSDKEAYYGNEGAFRCLVEKGDVAFVPHTVVFANTDGKNPAEWAKDLKSEDFEILCLDGSRAPVTNYRGCNLSGLPPRAIVTREESVSDVVRILINQQSLYGRNGFEKDMFQMFSSAKGQNLLFNDETQCLIEFDRQPKDIMEDYFGVRYYTAVYSASRSAVPSELIPACTFKHC
B4: OsSxph: Oophaga sylvatica (Little devil poison frog) saxiphilin, SEQ ID NO: 5 (protein, listed as Oophaga sylvatica)
chain: MRMTLQVLLCLCLLVLSSAAPNSRNVRWCVTSDTEEQKCNDLVTSCHVDEILLICVKKSSKEDCVRAISNGEADAISLDSKDVYKASLDPFNLKPIMTEAYSESEQTPCMRHRQSVLGGKKMIIGAFVPKCDEKGNYVPKQCHDSTGFCWCLNENGEEIEGTRTPPGNSGLTCENKANKPPCLKERQKLLSAKPSPAVFVPECDEKGNYRPEQSHVYSWCVDEYGEEVLGSRTFPGKPPKPCEASGETPCIKERNKVLSAAEPLPGAFVPDCDEKGYFSPLQFHGSTGHSWCVTKNGEEIKGTRTRPGQTPPTCDVPAPATLHYAVAVVKKSSSFQLDQLKGKRSCHSAVGEAAGWVAPLNVLLKKKFLLWEEPEQKSTEKVASEIFSASCAAGAQEANLCEQCAGQEDKCTRGPGEPYYGDEGAIRCLRDDKGDVAFVEDTALTGQYSDNFELLCPDNTRRPLSQYKICNFGSVPRHAVVTRSTGDKMKEITEYLLQAQKKECKLFSSTHGKDLLFEDTTSALIALPSGMDTFLFLGPDLFNGMKTLNGAHPPRVKQKIRWCPQNKNEKKKCDDWSSVSGGSIKCTEPSSALECIKMILKDEADAVNLDAEHAYTALKCGLLPSLEEYRNKDDLIVCQIPGAEYSEFGSYRIVALVKKTDKDITWNNLQGKKSCHTHVGDMIGWNIPVYLISKKTKNCDLGSYFSQSCAPGSPIDSNLCKLCIGDPQNTEANTKCSLSDKEAYYGNEGAVRCLVETGDVAFVPHTAVFENTDGKNPALWAKDLKSTDFELLCPDGSRAPVSDYKKCKLSGIANHVTVTRPESVKDVVRITQNQESLYGRTGSQKDIFQMFSSSYGQNLLFNDRTQCLFEFDRMLDRDIMDDYLGKPFHKHLMSDNDCLPKSALATACSFHH
B5: E540D: RcSxph STX binding pocket mutant E540D (protein)
chain: B1 chain with E559D, N804D
B6: F561A: RcSxph STX binding pocket mutant F561A (protein)
chain: B1 chain with F580A, N804D
B7: Y558A: RcSxph STX binding pocket mutant Y558A (protein)
chain: B1 chain with Y577A, N804D
B8: D794E: RcSxph STX binding pocket mutant D794E (protein)
chain: B1 chain with N804D, D813E

Positions count from the first letter of the chain named. In names and notes the source's numbering stands.

The first series is described as follows: Thermofluor (TF) assay of STX binding. The following applies: 1.1 μM Sxph, 0-20 μM STX; ΔTm at 20 μM toxin.
As for B1, the “ΔTm (STX-induced change of melting temperature)” value is recorded as “DTm increases relative to wild-type”.
The same measure, in the same setting: as for B2, the entry is “complete loss of the thermal shift”.
Still for that read-out and setting: as for B3, the figure is 3.6 °C.

Assay in another series: not given
Format: binding. The note with it: FP.
Consider B3, for which the “STX/F-STX affinity compared with RcSxph” value is recorded as “enhanced affinity”.

The same series, now with this note: FP, 1 nM F-STX, 25° C.; errors S.D.
On to B4, for which binding was characterised by a dissociation constant (Kd) of 0.8 ± 0.5 nM.
B1: the Kd was 4.4 ± 0.6 nM.
Molecule B2 returned a Kd of 13200 ± 6870 nM.
On the same count and under the same terms, as for B5, the figure is 99.9 ± 25.1 nM.
For the molecule B6, the Kd was determined as 16.8 ± 6 nM.
Regarding B7, the affinity, expressed as Kd, was 1.4 ± 0.3 nM.
In the case of B8, the dissociation constant Kd amounted to 1070 ± 69.3 nM.
B3 had a Kd of 0.5 ± 0.3 nM.

Still in this series, the particulars now being: ΔΔG = RT ln(Kd mutant or XSxph/Kd RcSxph); T = 298K; FP with F-STX.
Turning to B4, the “ΔΔG” value is -1.32 kcal/mol.
For the molecule B1, the “ΔΔG” value was -0.30 kcal/mol.
Regarding B2, the “ΔΔG” value is 4.43 kcal/mol.
For B5, the “ΔΔG” value amounted to 1.54 kcal/mol.
Turning to B6, the “ΔΔG” value came to 0.48 kcal/mol.
Still for that read-out and setting: as for B7, the figure is -1.00 kcal/mol.
For B8, the “ΔΔG” value was 2.94 kcal/mol.
In the case of B3, the “ΔΔG” value is -1.60 kcal/mol.

Assay in another series: not given
Format: binding. The note with it: ITC, STX, 25° C. As to the method: . […] In almost all mutants, binding affinity loss correlated with a reduction in enthalpy, consistent with a loss of interactions (Table S2). […]. […] Together, these three assays (FIGS. 1E and G) provide a robust and versatile suite of options for characterizing STX:Sxph interactions.
ITC measurements were performed at 25° C. using a MicroCal PEAQ-ITC calorimeter (Malvern Panalytical). […]. This STX stock was diluted with the SEC buffer to prepare 100 μM or 300 μM STX solutions having a final buffer composition of 135 mM NaCl, 9 mM HEPES, pH 7.4. […]. The calorimetric experiment settings were: reference power, 5 μcal/s; spacing between injections, 150 s; stir speed 750 rpm; and feedback mode, high. Data were analyzed using MicroCal PEAQ-ITC Analysis Software (Malvern Panalytical) using a single binding site model. The heat of dilution from titrations of 100 μM STX in 135 mM NaCl, 9 mM HEPES, pH 7.4 into 135 mM NaCl, 9 mM HEPES, pH 7.4 was subtracted from each experiment to correct the baseline.
For the molecule B5, the Kd came to 68.9 ± 10.7 nM, the “ΔG” value was -9.8 ± 0.1 kcal/mol, the “ΔH” value is -16.3 ± 1.7 kcal/mol and the “ΔS (cal mol^−1 K^−1)” value is −21.9 ± 5.7 cal mol^−1 K^−1.
As for B6, binding was put at a Kd of 13.4 ± 1.4 nM, the “ΔG” value is -10.8 ± 0.1 kcal/mol, the “ΔH” value was -12.7 ± 0.2 kcal/mol and the “ΔS (cal mol^−1 K^−1)” value is on record as −6.6 ± 0.9 cal mol^−1 K^−1.
Take B7: the Kd was found to be 1.2 ± 0.4 nM, the “ΔG” value was -12.2 ± 0.2 kcal/mol, the “ΔH” value was -15.3 ± 0.0 kcal/mol and the “ΔS (cal mol^−1 K^−1)” value is −11.1 ± 1.1 cal mol^−1 K^−1.
Turning to B8, the Kd came to 312.5 ± 2.9 nM, the “ΔG” value was -8.9 ± 0.1 kcal/mol, the “ΔH” value was -11.8 ± 0.0 kcal/mol and the “ΔS (cal mol^−1 K^−1)” value was −8.9 ± 0.1 cal mol^−1 K^−1.
Consider B3, for which binding was put at a Kd of 2.5 ± 0.1 nM, the “ΔG” value was -11.8 ± 0.1 kcal/mol, the “ΔH” value was -18.7 ± 0.2 kcal/mol and the “ΔS (cal mol^−1 K^−1)” value is −23.2 ± 0.8 cal mol^−1 K^−1.

Staying with this series, now noted: ITC, STX, 25° C.; listed as NpSxph WT.
Turning to B3, the “ΔH” value was -18.7 ± 0.2 kcal/mol.
